Laboratory results as given in patent publication US7625707B2, “Antibacterial agents and methods of identifying and utilizing same” (Ramot At Tel Aviv University Ltd., priority 2003, dated 2009).

Tests used:
GST-YoeB fusion protein = molecular target: T1, GST-YoeB fusion protein (Escherichia coli, UniProt P69348); assay: Peptide array analysis of YefM tridecamer peptides probed with GST-YoeB; format: binding, E. coli
T1 construct: made in house; host or cells: E. coli BL21(DE3) pLysS
T1 sequence (P69348 1-84): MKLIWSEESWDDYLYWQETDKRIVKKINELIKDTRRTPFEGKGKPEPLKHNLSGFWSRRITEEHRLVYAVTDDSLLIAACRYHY
Protocol: Peptide array analysis: Tridecamer peptides corresponding to consecutive overlapping sequences of the YefM polypeptide were arrayed on a cellulose membrane matrix and covalently bound to a Whatman 50 cellulose support (Whatman). Approximately 50 μg aliquots of soluble GST-YoeB fusion were examined for their selective peptide binding ability, on the basis of YefM-YoeB putative interaction.
For low stringency binding the cellulose membrane was briefly washed in 100% ethanol, washed three times with Tris-buffered saline (TBS; 50 mM Tris-HCl pH 7.5, 150 mM NaCl), then blocked for 4 hours using 5% (w/v) non-fat milk in TBS. The membrane was then washed three times in TBS+0.1% (v/v) tween 20 (TBS-T) and incubated with 10 ml GST-YoeB solution at 4° C. and slow shaking for 14 hours.
For high stringency binding the washing steps were extensive and multiple and the blocking solution washing step was reduced to a single brief wash.
Following incubation, the membrane was washed once in TBS-T then supplemented with 10 ml suspension comprising TBS, mouse anti-GST antibody and horseradish peroxidase conjugated goat anti-mouse antibody in the appropriate titers. Following 1 hour incubation at room temperature the membrane was briefly washed with TBS-T and TBS. Bound GST-YoeB proteins were detected through an enhanced chemiluminescence reaction following an exposure to a sensitive film.

E. coli TOP10 [1] = assay: Colony formation analysis of bacteria overexpressing YefM, YoeB or both; conditions: L-arabinose 0.0005-0.2% on LB-Amp agar, 37° C., 20 hours
Protocol: (§1) The generated constructs were introduced to E. coli strain TOP10.
Colony formation analysis: E. coli TOP10 bacteria harboring pBAD-yefM, pBAD-yoeB, or pBAD-yefMyoeB, were cultured in LB-Amp and incubated at 37° C. overnight Following incubation the cultures were diluted to an A600 of 0.01 in a fresh LB-Amp and incubated at 37° C. until an absorbance of 0.5 at A600 was reached. The cultures were then diluted in ten-fold dilutions steps and applied as 5 μl droplets on LB-Amp agar plates containing L-arabinose at a concentration gradient of 0.2%, 0.1%, 0.05%, 0.02%, 0.005% and 0.0005%. An LB-Amp agar plate containing 0.2% glucose was used as a negative control. All plates were incubated at 37° C. for at least 20 hours.

[2] = boiled 10 minutes, supernatant (FIG. 4D)
E. coli TOP10 [3] = assay: Growth rate analysis of bacteria overexpressing YefM, YoeB or both; conditions: 0.2% L-arabinose induction compared with 0.2% glucose control, LB-Amp, 37° C.
Protocol: as §1
Growth rate analysis: E. coli TOP10 bacteria transformed with pBAD-yefM, pBAD-yoeB, and pBAD-yefMyoeB were cultured in LB broth supplemented with 100 μg/ml ampicillin (LB-Amp) and incubated at 37° C. overnight. Following incubation, cultures were diluted in fresh LB-Amp and their optical density was adjusted to approximately 0.01 (A600). Each culture was then divided into two equal volumes. One volume was supplemented with 0.2% L-arabinose to induce expression of the target gene and the second volume was supplemented with 0.2% D-glucose to suppress expression. All cultures were incubated at 37° C. and 200 rpm for up to 9 hours. Cell density was estimated periodically by optical absorbance at 600 nm. The effect of target gene induction on bacterial growth during the logarithmic growth phase was determined as described above with the exception that cultures were divided and supplemented with 0.2% L-arabinose, or 0.2% D-glucose at the time they had reached optical density of approximately 0.45 (A600).

[4] = Thermal denaturation monitored by CD ellipticity at 222 nm; format: physicochemical; conditions: PBS pH 7.3
Protocol: Circular Dichroism (CD): CD spectra were obtained by using an AVIV 202 spectrapolarimeter equipped with temperature-controlled sample holder and a 5 mm path length cuvette. Mean residual ellipticity, [θ], was calculated as, [θ]=[100×θ×m]/[c×L]
The identity of YefM and YoeB-His was verified using protein spots isolation from Coomassie blue stained gels and was accomplished by mass spectrometry, according to established protocols (Bandow, J. E., Becher, D., Buttner, K, Hochgrafe, F., Freiberg, C., Brotz, H. and Hecker, M. (2003) Proteomics. 3, 299-306). Briefly, protein spots were excised from stained gels and the gel pieces were treated trypsin solution (Pomega) for 16 h at 37° C. Peptides were extracted from gel onto a sample plate for MALDI-MS. Obtained peptides masses were determined in the positive ion reflector mode in a Voyager-DE STR mass spectrometer (Applied Biosystems). […] To determine the concentrations of YoeB-His and YefM polypeptides, tyrosine and tryptophan absorbance measurements in 0.1 M KOH were used. YefM concentration was calculated using the extinction coefficient of 2381 M^−1 cm^−1 at 293.2 nm for single tyrosine (4 tyr). YoeB-His concentration was calculated using extinction coefficient at 280 nm of 1507 M^−1 cm^−1 for single tyrosine (6 tyr) and 5377 M^−1 cm^−1 for single tryptophan (4 trp). […]

Question: With `CC[C@H](C)[C@H](NC(=O)[C@@H](NC(=O)[C@@H](N)CCCNC(=N)N)[C@@H](C)O)C(=O)N[C@@H](CO)C(=O)N[C@@H](Cc1ccc(O)cc1)C(=O)N[C@@H](CO)C(=O)N[C@@H](CCC(=O)O)C(=O)N[C@@H](C)C(=O)N[C@@H](CCCNC(=N)N)C(=O)N[C@@H](CCC(N)=O)C(=O)N[C@@H](CC(N)=O)C(=O)N[C@@H](CC(C)C)C(=O)N[C@@H](CO)C(=O)O` [YefM11-23] as the molecule, how does the “binding of YoeB-GST to arrayed tridecamer peptide” value (GST-YoeB fusion protein; high stringency, single amino-acid shift between peptides (FIG. 6B)) read?
Answer: best binding

Question: And the “binding of YoeB-GST to arrayed tridecamer peptide” value (GST-YoeB fusion protein; low stringency, two amino-acids shift between peptides (FIG. 6A))?
Answer: positively identified

B1: YefM: E. coli antitoxin polypeptide, 92 amino acids, SEQ ID NO: 76, natively unfolded (protein, listed as Escherichia coli)
chain: MNCTKEEIDMRTISYSEARQNLSATMMKAVEDHAPILITRQNGEACVLMSLEEYNSLEETAYLLRSPANARRLMDSIDSLKSGKGTEKDIIE
Question: What does the source list for B1?
Answer: bacterial colony formation on overexpression (E. coli TOP10 [1]): inhibited; solubility during boiling [2]: extraordinary solubility; growth of bacteria overexpressing the polypeptide (E. coli TOP10 [3]): substantially reduced

B2: YoeB: E. coli toxin polypeptide, SEQ ID NO: 77 (protein, listed as Escherichia coli)
chain: MKLIWSEESWDDYLYWQETDKRIVKKINELIKDTRRTPFEGKGKPEPLKHNLSGFWSRRITEEHRLVYAVTDDSLLIAACRYHY
Question: Which results are given for B2?
Answer: bacterial colony formation on overexpression (E. coli TOP10 [1]): inhibited; growth of bacteria overexpressing the polypeptide (E. coli TOP10 [3]): substantially reduced

B3: YefM and YoeB: toxin-antitoxin pair co-overexpressed in E. coli TOP10 from pBAD-yefMyoeB (protein, UniProt P69346 1-83; P69348 1-84, looked up)
Antitoxin YefM: MRTISYSEARQNLSATMMKAVEDHAPILITRQNGEACVLMSLEEYNSLEETAYLLRSPANARRLMDSIDSLKSGKGTEKDIIE
Toxin YoeB: MKLIWSEESWDDYLYWQETDKRIVKKINELIKDTRRTPFEGKGKPEPLKHNLSGFWSRRITEEHRLVYAVTDDSLLIAACRYHY
Question: For B3, which “bacterial colony formation on overexpression” value (E. coli TOP10 [1]) is on record?
Answer: unaffected

Question: And the “growth of bacteria overexpressing the polypeptide” value (E. coli TOP10 [3])?
Answer: remained normal

B4: YoeB-His: YoeB toxin expressed in fusion to myc-epitope and his-tag (protein)
chain: MKLIWSEESWDDYLYWQETDKRIVKKINELIKDTRRTPFEGKGKPEPLKHNLSGFWSRRITEEHRLVYAVTDDSLLIAACRYHY
modifications: left off: small tags and cut ends
Question: For B4, which “polypeptide melting point (TM)” value [4] is on record?
Answer: approximately 60 °C
